One molecule from US20170233488A1 (University of California, published 2017) can be followed below.

The experiment concerns the target T1, ALCAM/MEMD/CD166 (human, UniProt Q13740 28-583).
T1 construct: whole, on cells; Endogenous antigen on Du-145 prostate cancer cells (FACS) and in lysates of surface-biotinylated Du-145 cells (IP and Western blot)
T1 sequence (looked up): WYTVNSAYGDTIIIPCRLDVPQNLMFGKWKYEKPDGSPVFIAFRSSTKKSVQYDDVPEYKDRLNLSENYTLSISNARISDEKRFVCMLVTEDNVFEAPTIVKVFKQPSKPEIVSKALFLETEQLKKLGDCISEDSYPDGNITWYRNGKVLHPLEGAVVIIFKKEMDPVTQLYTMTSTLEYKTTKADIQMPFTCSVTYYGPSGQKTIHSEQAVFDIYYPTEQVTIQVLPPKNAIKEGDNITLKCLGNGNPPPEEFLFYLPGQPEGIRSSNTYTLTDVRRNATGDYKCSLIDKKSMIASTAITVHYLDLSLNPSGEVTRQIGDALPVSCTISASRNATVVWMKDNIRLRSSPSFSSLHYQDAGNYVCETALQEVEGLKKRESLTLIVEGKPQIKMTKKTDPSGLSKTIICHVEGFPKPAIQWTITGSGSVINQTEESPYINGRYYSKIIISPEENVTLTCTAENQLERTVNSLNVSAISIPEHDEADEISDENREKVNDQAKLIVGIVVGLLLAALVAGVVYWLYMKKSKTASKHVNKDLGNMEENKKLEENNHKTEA
Put plainly: FACS on Du-145 cells, equilibrium binding at 4 C overnight, apparent KD by curve fitting of MFI. The protocol: Monodispersed DU-145 cells were incubated with varying concentrations of IgG1s at 4° C. overnight to allow equilibrium binding. After washing, bound human IgG1 s were detected by R-phycoerythrin-conjugated goat anti-human secondary antibody and analyzed by FACS. Mean fluorescence intensity (MFI) values were plotted and the KD was determined by curve fitting using GraphPad (GraphPad Software, San Diego, Calif.).

B1: anti-ALCAM IgG1 (585II41.1, also known as H3) (antibody, V domains shown)
VH: QVQLVESGGGLVQPGGSLRLSCAASGFTFSSYAMSWVRQAPGKGLEWVSAISGSGGSTYYADSVKGRFTISRDNSKDTLYLQMNSLRAEDTAVYYCASRSLLDYWGQGTLVTVSS
VL: NFMLTQDPAVSVALGQTVRITCQGDSLRSYYASWYQQKPGQAPLLVIYGKNNRPSGIPDRFSGSSSGNTASLTITGAQAEDEADYYCNSRDSSGNPVFGGGTKVTVL
notes: also called H3 IgG; H3 IgG1
In the case of B1, the Kd turned out to be 4.4 pM.
